Assay results reported in patent publication US6884600 (MEDICAL RESEARCH COUNCIL LONDON, dated 2005).

B3: β isoform of PP1c released from rabbit skeletal muscle PP1G (enzyme, UniProt P62143 2-327, looked up)
chain: ADGELNVDSLITRLLEVRGCRPGKIVQMTEAEVRGLCIKSREIFLSQPILLELEAPLKICGDIHGQYTDLLRLFEYGGFPPEANYLFLGDYVDRGKQSLETICLLLAYKIKYPENFFLLRGNHECASINRIYGFYDECKRRFNIKLWKTFTDCFNCLPIAAIVDEKIFCCHGGLSPDLQSMEQIRRIMRPTDVPDTGLLCDLLWSDPDKDVQGWGENDRGVSFTFGADVVSKFLNRHDLDLICRAHQVVEDGYEFFAKRQLVTLFSAPNYCGEFDNAGGMMSVDETLMCSFQILKPSEKKAKYQYGGLNSGRPVTPPRTANPPKKR
notes: mature; also called PP1 catalytic subunit

Tests used:
[1] = target: T1, myosin from chicken gizzard, dephosphorylated form (chicken, UniProt P10587 2-1979; P02612 2-172; P02607 2-151); test: not described in Example 1
T1 construct: mature; Native protein pelleted by centrifugation; 1 µM in terms of heavy chains; also called myosin dimer
T1 sequence (P10587 2-1979, chain 1 of 3): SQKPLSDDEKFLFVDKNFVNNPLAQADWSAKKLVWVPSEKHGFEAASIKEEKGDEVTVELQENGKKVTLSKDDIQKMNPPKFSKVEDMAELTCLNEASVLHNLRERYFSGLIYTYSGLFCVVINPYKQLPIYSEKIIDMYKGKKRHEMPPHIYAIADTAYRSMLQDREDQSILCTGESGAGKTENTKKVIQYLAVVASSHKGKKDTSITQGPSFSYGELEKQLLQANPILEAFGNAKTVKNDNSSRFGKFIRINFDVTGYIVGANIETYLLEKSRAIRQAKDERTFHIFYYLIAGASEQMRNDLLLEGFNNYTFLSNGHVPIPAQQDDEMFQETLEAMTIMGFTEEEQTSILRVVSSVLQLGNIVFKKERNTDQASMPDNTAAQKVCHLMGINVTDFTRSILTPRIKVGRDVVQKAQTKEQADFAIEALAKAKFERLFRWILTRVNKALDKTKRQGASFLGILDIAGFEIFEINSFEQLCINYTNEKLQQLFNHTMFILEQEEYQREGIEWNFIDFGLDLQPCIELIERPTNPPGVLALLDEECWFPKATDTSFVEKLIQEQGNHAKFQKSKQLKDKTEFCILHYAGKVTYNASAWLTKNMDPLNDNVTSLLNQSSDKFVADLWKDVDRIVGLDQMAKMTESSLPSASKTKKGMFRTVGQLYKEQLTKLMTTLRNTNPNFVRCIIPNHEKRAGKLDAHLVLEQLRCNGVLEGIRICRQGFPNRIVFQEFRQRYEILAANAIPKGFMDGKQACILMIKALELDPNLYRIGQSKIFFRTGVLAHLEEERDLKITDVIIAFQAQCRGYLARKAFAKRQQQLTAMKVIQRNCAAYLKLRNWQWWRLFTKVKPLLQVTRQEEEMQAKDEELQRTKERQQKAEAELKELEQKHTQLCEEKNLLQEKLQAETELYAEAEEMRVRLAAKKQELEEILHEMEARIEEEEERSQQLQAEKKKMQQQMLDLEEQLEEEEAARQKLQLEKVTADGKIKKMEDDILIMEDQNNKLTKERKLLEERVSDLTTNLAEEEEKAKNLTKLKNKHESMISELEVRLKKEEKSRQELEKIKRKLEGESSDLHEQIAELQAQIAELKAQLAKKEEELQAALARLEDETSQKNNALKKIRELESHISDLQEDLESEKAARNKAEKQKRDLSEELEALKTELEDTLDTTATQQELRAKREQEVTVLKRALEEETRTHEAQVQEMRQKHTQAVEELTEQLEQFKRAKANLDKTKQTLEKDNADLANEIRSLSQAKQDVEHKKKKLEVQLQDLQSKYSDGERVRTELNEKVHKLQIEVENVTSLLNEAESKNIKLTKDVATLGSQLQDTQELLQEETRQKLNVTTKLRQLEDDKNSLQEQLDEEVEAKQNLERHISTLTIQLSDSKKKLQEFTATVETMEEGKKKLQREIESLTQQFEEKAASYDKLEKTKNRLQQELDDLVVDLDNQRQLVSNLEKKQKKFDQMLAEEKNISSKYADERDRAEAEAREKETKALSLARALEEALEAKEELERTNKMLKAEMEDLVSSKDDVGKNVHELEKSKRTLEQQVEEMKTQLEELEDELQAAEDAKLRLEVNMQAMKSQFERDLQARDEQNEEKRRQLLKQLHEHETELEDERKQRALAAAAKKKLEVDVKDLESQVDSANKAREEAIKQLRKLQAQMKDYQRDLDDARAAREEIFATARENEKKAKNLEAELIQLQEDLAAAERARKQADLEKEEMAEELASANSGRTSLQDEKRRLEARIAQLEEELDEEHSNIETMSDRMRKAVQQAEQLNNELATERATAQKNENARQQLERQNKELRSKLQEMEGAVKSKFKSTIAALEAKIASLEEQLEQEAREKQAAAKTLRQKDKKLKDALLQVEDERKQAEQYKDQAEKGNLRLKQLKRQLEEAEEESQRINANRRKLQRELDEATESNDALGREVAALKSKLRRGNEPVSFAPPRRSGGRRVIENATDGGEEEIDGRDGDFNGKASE
T1 sequence (P02612 2-172, chain 2 of 3): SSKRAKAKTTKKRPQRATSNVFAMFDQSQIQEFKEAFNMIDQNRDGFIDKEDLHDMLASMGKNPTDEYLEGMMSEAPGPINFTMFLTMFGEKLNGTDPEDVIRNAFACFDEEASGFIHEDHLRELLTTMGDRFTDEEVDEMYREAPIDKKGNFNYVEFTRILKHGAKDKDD
T1 sequence (P02607 2-151, chain 3 of 3): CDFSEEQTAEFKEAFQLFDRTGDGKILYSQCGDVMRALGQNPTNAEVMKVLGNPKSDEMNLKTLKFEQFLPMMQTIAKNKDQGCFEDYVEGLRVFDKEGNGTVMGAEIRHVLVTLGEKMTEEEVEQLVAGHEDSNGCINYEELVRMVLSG

[2] = target: B3; test: cell-based or functional assay
MBP-M110-(K933-I1004) = target: T2, MBP-M110-(K933-I1004) (chicken, UniProt Q90623 933-1004, digoxigenin label when used as probe); test: Far Western, blot probed with digoxigenin-labelled MBP-M110-(K933-I1004)
T2 construct: also called digoxigenin-labelled MBP-M110-(K933-I1004); digoxigenin-labelled M110-(K933-I1004)
T2 sequence: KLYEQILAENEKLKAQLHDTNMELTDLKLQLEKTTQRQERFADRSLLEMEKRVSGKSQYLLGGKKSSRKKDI
Procedure: A) GST-$M21$ 5 μg (track 1), $M21$ 5 μg (track 2), $M21$-(M1-L146) 5 μg (track 3), $M21$-(M1-E110) 20 μg (track 4) and $M21$-(E110-K186) 5 μg (track 5) were run on 16.5% polyacrylamide gels and stained with Coomassie Blue. The marker proteins ovalbumin (43 kDa) and carbonic anhydrase (29 kDa) are indicated. B) GST-$M21$ 0.5 μg (track 1), $M21$ 0.5 μg (track 2), $M21$-M1-L146) 0.5 μg (track 3), $M21$-(M1-E110) 5 μg (track 4) and $M21$-(E110-K186) 5 μg (track 5) were electrophoresed as in A) and after transfer to nitrocellulose the blots were probed with digoxigenin-labelled MBP-$M110$-(K933-I1004) (0.2 μg/Ml). C) same as B) except that, after electrophoresis, the proteins were transferred to nitrocellulose and probed with digoxigenin-labelled $M21$ subunit (0.2 μg/ml).

[3] = target: T1, myosin from chicken gizzard, …; test: co-sedimentation with myosin, phosphatase activity in pellet and supernatant
Procedure: The PP1 catalytic subunit (PP1c), PP1_M, or PP1_M lacking the $M21$ subunit, $PP1_M(\Delta M21)$, each at 30 nM, were incubated for 15 min at 0° C. with 1 μM myosin and centrifuged (see Methods of Example 3). […] The results shown are the average (±S.E.M.) for three separate experiments each assayed in duplicate.
Myosin binding assays. Myosin (0.5 mg/ml, 1 µM in terms of myosin heavy chains) in 10 mM Hepes pH 7.5, 50 mM KCl, 5 mM MgCl2, 0.1% (by vol) 2-mercaptoethanol, was mixed with PP1_M, M$21$ subunit, or fragments of the M$110$ and M$21$ subunits, at the concentrations indicated in figure legends. After incubation for 15 min at 0° C., the solutions were centrifuged for 2 min at 13,000×g, the supernatants removed, and the pellets washed twice in 10 mM Hepes pH 7.5, 50 mM KCl, 5 mM MgCl2, 0.1% (by vol) 2-mercaptoethanol before resuspension in 50 mM Tris-HCl pH 7.5, 0.1 mM EGTA, 0.03% (by mass) Brij 35, 0.6 M NaCl, 0.1% (by vol) 2-mercaptoethanol. Aliquots of the supernatant, the resuspended pellet and the suspension before centrifugation were either assayed for myosin P-light chain phosphatase activity or denatured in SDS and analysed by SDS/polyacrylamide gel electrophoresis.

B1: M110-(M1-E309), released from GST with thrombin (other)
chain: GSPGMKMADAKQKRNEQLKRWIGSETDLEPPVVKRQKTKVKFDDGAVFLAACSSGDTDEVLKLLHRGADINYANVDGLTALHQACIDDNVDMVKFLVENGANINQPDNEGWIPLHAAASCGYLDIAEFLIGQGAHVGAVNSEGDTPLDIAEEEAMEELLQNEVNRQGVDIEAARKEEERIMLRDARQWLNSGHISDVRHAKSGGTALHVAAAKGYTEVLKLLIQAGYDVNIKDYDGWTPLHAAAHWGKEEACRILVDNLCDMETVNKVGQTAFDVADEDILGYLEELQKKQNLLHSEKRDKKSPLIESTANMEA
notes: Rat aorta M110 fragment; free GST was left in the solution after cleavage; also called M100-(M1-E309)
[1]
  binding result: no binding
[2]
  MLC20 phosphatase activity of PP1c: ~3 fold

B2: M21-(M1-E110), released from GST with thrombin (other)
chain: MSSLFTRSKEYTRSRKSQSDSPPSSPSPIAKTLRHERLSRLEAATTPATSDSYSDRASSRSSAYSRRENRLAALSSRAEEESNRDYKKLYESALSENQKLKSKLQEAQLEA
notes: not shown: the few vector residues left at the N terminus after thrombin cleavage of the modified pGEX fusion
MBP-M110-(K933-I1004)
  binding result: no binding (tested: 0.2 µg/ml probe)

## B3
[3]
  binding result: no binding (tested: 30 nM with 1 µM myosin)
